From publication PMC3214759 (Biochemistry, 2011)

What was measured:
crystal structure = target: the molecule itself; test: crystal structure
SEC = target: the molecule itself; test: SEC

Protein	stoichiometry N (crystal structure)	stoichiometry N (SEC)
Rhizobium etli pyruvate carboxylase T882A mutant (enzyme, biotin tethered to Lys1119) PISKILVANRSEIAIRVFRAANELGIKTVAIWAEEDKLALHRFKADESYQVGRGPHLARDLGPIESYLSIDEVIRVAKLSGADAIHPGYGLLSESPEFVDACNKAGIIFIGPKADTMRQLGNKVAARNLAISVGVPVVPATEPLPDDMAEVAKMAAAIGYPVMLKASWGGGGRGMRVIRSEADLAKEVTEAKREAMAAFGKDEVYLEKLVERARHVESQILGDTHGNVVHLFERDCSVQRRNQKVVERAPAPYLSEAQRQELAAYSLKIAGATNYIGAGTVEYLMDADTGKFYFIEVNPRIQVEHTVTEVVTGIDIVKAQIHILDGAAIGTPQSGVPNQEDIRLNGHALQCRVTTEDPEHNFIPDYGRITAYRSASGFGIRLDGGTSYSGAIITRYYDPLLVKVTAWAPNPLEAISRMDRALREFRIRGVATNLTFLEAIIGHPKFRDNSYTTRFIDTTPELFQQVKRQDRATKLLTYLADVTVNGHPEAKDRPKPLENAARPVVPYANGNGVKDGTKQLLDTLGPKKFGEWMRNEKRVLLTDTTMRDGHQSLLATRMRTYDIARIAGTYSHALPNLLSLECWGGATFDVSMRFLTEDPWERLALIREGAPNLLLQMLLRGANGVGYTNYPDNVVKYFVRQAAKGGIDLFRVFDCLNWVENMRVSMDAIAEENKLCEAAICYTGDILNSARPKYDLKYYTNLAVELEKAGAHIIAVKDMAGLLKPAAAKVLFKALREATGLPIHFHTHDTSGIAAATVLAAVEAGVDAVDAAMDALSGNTSQPCLGSIVEALSGSERDPGLDPAWIRRISFYWEAVRNQYAAFESDLKGPASEVYLHEMPGGQFTNLKEQARSLGLETRWHQVAQAYADANQMFGDIVKVAPSSKVVGDMALMMVSQDLTVADVVSPDREVSFPESVVSMLKGDLGQPPSGWPEALQKKALKGEKPYTVRPGSLLKEADLDAERKVIEKKLEREVSDFEFASYLMYPKVFTDFALASDTYGPVSVLPTPAYFYGLADGEELFADIEKGKTLVIVNQAVSATDSQGMVTVFFELNGQPRRIKVPDRAHGATGAAVRRKAEPGNAAHVGAPMPGVISRVFVSSGQAVNAGDVLVSIEAMKMETAIHAEKDGTIAEVLVKAGDQIDAKDLLAVYGG	4	–
wild-type Rhizobium etli pyruvate carboxylase (enzyme) PISKILVANRSEIAIRVFRAANELGIKTVAIWAEEDKLALHRFKADESYQVGRGPHLARDLGPIESYLSIDEVIRVAKLSGADAIHPGYGLLSESPEFVDACNKAGIIFIGPKADTMRQLGNKVAARNLAISVGVPVVPATEPLPDDMAEVAKMAAAIGYPVMLKASWGGGGRGMRVIRSEADLAKEVTEAKREAMAAFGKDEVYLEKLVERARHVESQILGDTHGNVVHLFERDCSVQRRNQKVVERAPAPYLSEAQRQELAAYSLKIAGATNYIGAGTVEYLMDADTGKFYFIEVNPRIQVEHTVTEVVTGIDIVKAQIHILDGAAIGTPQSGVPNQEDIRLNGHALQCRVTTEDPEHNFIPDYGRITAYRSASGFGIRLDGGTSYSGAIITRYYDPLLVKVTAWAPNPLEAISRMDRALREFRIRGVATNLTFLEAIIGHPKFRDNSYTTRFIDTTPELFQQVKRQDRATKLLTYLADVTVNGHPEAKDRPKPLENAARPVVPYANGNGVKDGTKQLLDTLGPKKFGEWMRNEKRVLLTDTTMRDGHQSLLATRMRTYDIARIAGTYSHALPNLLSLECWGGATFDVSMRFLTEDPWERLALIREGAPNLLLQMLLRGANGVGYTNYPDNVVKYFVRQAAKGGIDLFRVFDCLNWVENMRVSMDAIAEENKLCEAAICYTGDILNSARPKYDLKYYTNLAVELEKAGAHIIAVKDMAGLLKPAAAKVLFKALREATGLPIHFHTHDTSGIAAATVLAAVEAGVDAVDAAMDALSGNTSQPCLGSIVEALSGSERDPGLDPAWIRRISFYWEAVRNQYAAFESDLKGPASEVYLHEMPGGQFTNLKEQARSLGLETRWHQVAQAYADANQMFGDIVKVTPSSKVVGDMALMMVSQDLTVADVVSPDREVSFPESVVSMLKGDLGQPPSGWPEALQKKALKGEKPYTVRPGSLLKEADLDAERKVIEKKLEREVSDFEFASYLMYPKVFTDFALASDTYGPVSVLPTPAYFYGLADGEELFADIEKGKTLVIVNQAVSATDSQGMVTVFFELNGQPRRIKVPDRAHGATGAAVRRKAEPGNAAHVGAPMPGVISRVFVSSGQAVNAGDVLVSIEAMKMETAIHAEKDGTIAEVLVKAGDQIDAKDLLAVYGG	–	4
